The record followed here is the DeepSol protein solubility set.

A short description of the data set: soluble on expression in E. coli; label from the status in PepcDB or PDB records.
In the case of “MIGLLFLFAACQEKVTSPAKVDTLPSIFPDYVGVTIPSTIAPLNFRVTDDGVEAVDVVIAGTKGKPVRLNGRSVDIPAKQWHELLESNKGDSIEVKVSVRQGKKWKEYRPFPIYVSPFPIDYGLVYRLLAPGYEVYSKMGIYERELSTFRQTPLFENTQVTAACINCHAFNRTEPTPSSVHVRGGHGATVIDTGDRLEFLDTKADGQLSACVYPYWHPSGEYIAYSVNKTNQAFHLGGKKPIEVFDQASDVVVYHPRSHRILTTPLLSTASFETFPAFSPDGRTLYFCSAEQKEMPVRYKDVKYSLCSIAFHPEDGTFGDRIDTLISARTLDKSISFPKPSFDGKYLMFTLSDYGNFSIWHKEADLWLLDLKTGTYRNLEEVNSDDTESYHNWSSNSHWFVFSSRRGDGLYTRLYISSVDGQGRIGKPFLLPQQDPYTFYDQLIYSYNVPEFVSAPVQWDKREMAKGLMSKERVKVKLEHHHHHH”, the “soluble on expression in E. coli” value is “not soluble”.
As to “TKIAMANFKSAMPIFKSHAYLKELEKTLKPQHFDRVFVFPDFFGLLPNSFLHFTLGVQNAYPRDCGAFTGEITSKHLEELKIHTLLIGHSERRTLLKESPSFLKEKFDFFKSKNFKIVYCIGEELTTREKGFKAVKEFLSEQLENIDLNYPNLVVAYEPIWAIGTKKSASLEDIYLTHGFLKQILNQKTPLLYGGSVNTQNAKEILGIDSVDGLLIGSASWELENFKTIISFL”, the “soluble on expression in E. coli” value is reported as “soluble”.
Turning to “MPSKKKKIVVIGRSNLQNLYIHTILLKKLPAEIYLIDEQAKTSVQDFEYASYYHSSATVNTGTFNECRSADLVLFFQEEMSNESFSNEDNLALIKEKVKKMMATGFQGIVLVATAESNIVASLIKHFSGLPANQIITPGTMLATSYFQVEIAKLFKISPKNVHGYIIGESTQDVIPVWSRAFLGGKPILSYLAEEQKRITSDDLQNLTNMITKIPDFPVETKDGCSFRFSTVTVLAELTEVILRDEARVLTVGVEVKEAYGLERPVFVSVPAVVGAEGVRELLELNLSDDEQKELKRITTKTTEKLGLLHNKGGIS”, the “soluble on expression in E. coli” value is listed as “not soluble”.
In the case of “VMHSSLYTSVDDKLHGLSENPQAVIQLAINRATEEIKDLENARADASKVEIKPNVSSNTEVILFDKDFTQLLSGNRFLGLDKIKLEKKELGHIYQIQVFNSYGQEEIYRVILMETNISSVSTNIKYAAVLINTSQLEQASQKHEQ”, the “soluble on expression in E. coli” value is listed as “not soluble”.
Take “MSLHITTKRLLIREFEFKDWQAVYEYTSDSNVMKYIPEGVFTEEDAKAFVNKNKGDNAEKFPVILRDEDCLIGHIVFYKYFGEHTYEIGWVFNPNYQNKGYASEAAQAILEYGFKEMNLHRIIATCQPENIPSYRVMKKIGMRREGFFKKCIPKGNEWWDEYYYAILEEEWNEGHHHHHH”: the “soluble on expression in E. coli” value is given as “soluble”.
The result for “SNAMNYFELFGLPIQFELDGSLLSSQFRALQKRFHPDNFATASERDRLMAVQQAAQINDAYQTLKDPLRRAEYLLSLQGIEMNAEQQTLQDPMFLMEQMELREELESVTACADPEAALVAFDTKVTAMQRHYLAQLQGQLAQSEWLAAADQIRKLKFIAKLKNEVERVEDQLLG” reads “soluble”; that for “MARIGIRYAEYSAMTVLRYLQAYPPHLQAQVRQMIDSDRLGEYLQRRYPDRHDVQSDKALYGYAQDLRQQYLRSAPNLDKVLFDSRLDLTHRALGLNTAVSRVQGGKLKAKKEIRIASLFKEAAPQFLRMIVVHELAHLRERDHNKAFYQLCQHMEPDYHQLEFDLRVYLTYRELPGNLLEHHHHHH”, “not soluble”; that for “GPGSMFDLTGRKALVTGATGGLGEAIARALHAQGAIVGLHGTREEKLKELAAELGERIFVFPANLSDREAVKALGQKAEEEMGGVDILVNNAGITRDGLFVRMSDEDWDAVLTVNLTSVFNLTRELTHPMMRRRNGRIINITSIVGVTGNPGQANYCASKAGLIGFSKSLAQEIASRNVTVNCIAPGFIESAMTGKLNEKQKDAIMGNIPMKRMGVGADIAAAVVYLASDEAAYVTGQTLHVNGGMAMI”, “soluble”.
As for “MAHHHHHHMELLTSVFQRHPPALRLHRELTIALADGDSARAADLASVLATTVQRVVAAEADSSDAATPPEGHANTGHFSQRDIPVAGLEDVEEAVEKTRQTLLREATVRVSSGVARDTGGSAISSEPAAAERSLPFWRDPERLCVTILESMFETEVLGGESQDTLTAAGNRAAEHEAEQVRILDAYLDKEGARWNAQKAAIAKIVLDVTRSLGLTPEDLQAFEGISASAGAGAAAAAGERKLNVLRHSNLVIRGEMPSAPLSSTASECVAEGVETELRALEERMSSLGQPLTPWEVRMARYELQMSKSKMRYVVGVHKELQLALDHSAALRASLREKSTAEVTFTTGTEVFMAEVIRALNEGADAYSANVTAEGAQLTVSNVKAREAVESPVLPFTFMLKGSLWFTTAPSRPPSSSSD”, the “soluble on expression in E. coli” value is “soluble”.
As for “MGSDKIHHHHHHMKTTALRLYGKRDLRLETFDLPEMQEDEILATVVTDSLCLSSWKEANLGENHKKVPDDVTTNPIIIGHEFCGDILAVGKKWQHKFQPGQRYVIQANLQLPDRPDCPGYSFPWVDGEATHVVIPNEVMEQYCLLAYDGETYFEGSLVEPLSCVIGAFNANYHLQEGSYNHTMGIRPQGHTLILGGTGPMGLLAIDYALHGPVNPSLLVITDTDNDKLSYARKHYPSEPQTLIHYLNATDAAFDTLMALSGGHGFDDIFVFVPNEGLVTLASSLLATDGCLNFFAGPQDKHFSAPINFYDVHYAFTHYVGTSGGNTDDMRAAVKLIEEKKVQAAKVVTHILGLNAAGETTLELPAVGGGKKLVYTGKYLPLTSLTQIQDQALAAILARHQGIWSGEVEQYLLAHAEAISHD”, the “soluble on expression in E. coli” value was “not soluble”.
As to “MATEPPKIVWNEGKRRFETEDHEAFIEYKMRNNGKVMDLVHTYVPSFKRGLGLASHLCVAAFEHASSHSISIIPSCSYVSDTFLPRNPSWKPLIHSEVFKSSI”, the “soluble on expression in E. coli” value was “soluble”.
The result for “MIGDGKLLASAAWDAQSLNELKAKAGQDPAANIRPVARQVEGMFVQMMLKSMREALPKDGLFSSDQTRLYTSMYDQQIAQQMTAGKGLGLADMMVKQMTSGQTMPADDAPQVPLKFSLETVNSYQNQALTQLVRKAIPKTPDSSDAPLSGDSKDFLARLSLPARLASEQSGVPHHLILAQAALESGWGQRQILRENGEPSYNVFGVKATASWKGPVTEITTTEYENGEAKKVKAKFRVYSSYLEALSDYVALLTRNPRYAAVTTAATAEQGAVALQNAGYATDPNYARKLTSMIQQLKAMSEKVSKTYSANLDNLF” reads “not soluble”; that for “MAEAVITLTEAAAFQIKDMMKEQEEEGAYLRVGVHGGGCSGLSYGMGFDHERRDDDIEFEQHGIKILVDRDSAPILRGTVIDYKQSLLGGGFTINNPNAIATCGCGSSFRTATNAGTPEQC”, “soluble”.
In the case of “MSLSASPELADKKGIRACPFDEPKASDEINTGFMKIFTGGDTITARALYKEPIYFKPQFKPFLLCNELPTIKSDDDGTWRRLKVIPFLSKFIKHSEATKKMKKEGLPKNHFWADTSLSEKLPDWKQGFMCLLLKYFRKYRKHGLIHPKLVTQHTVEYRKKCDVFQDFIGDYLVRVDNTKKGISVMDLYQNMREWYKSNYTGKCPNAKDLRNYVQHRMPTYNKNAEGHHHHHH” it was “not soluble”; in that of “MEAWIAEAKALLAALVAVPSVSAEGRALREGAEKVAEVLEGLGLRAELHEGYGPPVVFAEGGEGERTLLFYNHYDVQPPDPLELWDTDPFVLAEREGAWYARGAHDYKGELVVRVVALRRFQEKHGFLPRVKFVVEGEEEVGSPHLEAYVADKRDLLKAEAILWEAGGVDAKGRPYLYAGLKGIVALELRVRTAAFDLHSSYGAVVENPIYRLSRALASLRDEEGRVLIPGFYAKVRPLTPLEMEVLAQIPDESEALREAFGVRDFLGGARNLDFNQRLYAEPCVNFNGFHAGYGGPGSKTVLPAEARAKLDFRLVPDQDPEEVPELLRRHLEAQGFHDVEVVVLEKGERPARSDLAHPFVALARRALEEAFGERPVLYPNMAGSGPMHPFLHHLKAPAVGLGVGYPGSRVHSPNEHIRVRDFERGVQALLRLLELFFLGR”, “soluble”.
On to “MGSDKIHHHHHHMMKKTHYNILMVNLPFSGHTNPTLGLAQILVQLGHNVTYINAPDWQSKIERTGAHFVPYDHYPDSLSERQKKVKSWSAAYQTVLRMGKDYDCLIYEMLFFPGKALADRLNIPAYRLFSTFSLNEKILTEFGKTGGFYLTSIFRFTFLRHLLSRKLQRTFQLAYDDLAKEISLNTPELNFTYTVREFQIDADTFDENHYQYVGPSINRPVEPPFDFTPFKNPIIYISLGTLLNRSVSFFKKCIKAFENEPYSIIISLGNRIKKEQLGTMPANVHLYSFVPQLQILERASLFLTHGGMNSVNEAIYYGCPMLVIPVGNDQPRVAQQVADLHLGKCLKCHNLNPQEIKQAAHTILKDSSYKNTIWHFQKIAQTAGGNTLIAQTIIKDLQTKP”, for which the “soluble on expression in E. coli” value is reported as “not soluble”.
“MARHKCQDCGKTFDLKRYLTKHELRMHKNVVKSKNDRSASDPLKCSMCDKVFPRLSHLQRHQMTHLNVRNYSCTFCEEKFVQKSHLTRHVSRKHSNAPGVEVDWTACDKCGQLFKTTYEMRIHRQTYHELHKCKQCQEVIEAGSDGLRKHHMQCRKYSNVCDECGASFSRPADLVSHETSCLKKFAFVCKPCDSYFRQRVQLDRHIKKAHFHPTKCSKCEQISDTPVQNSRHSLECVKVIICGYCSLKNPDKNHVATVHWHRLKRAVSKSVTIRHKLKDAPIADKDVPSSSGQSSLEEEILDDSEDDLEDTGEGLSNREQFKNRDIKRENNLEEVKSSTDNRDEEDSLFNFPDTSTSQLDFCSTAFTEDDSFPGDYVTLSICPKNTDLSFDLRDRLPPELSELFPELEATSIVLLNKSIRCRMTVRVPVCIPKSSTQEAEMRKWLDMTVVLKDD”: the “soluble on expression in E. coli” value is on record as “not soluble”.
As for “GSVVIVGRIILSGSGSITAYSQQTRGLLGCIITSLTGRDKNQVEGEVQVVSTATQSFLATCVNGVCWTVYHGAGSKTLAGPKGPITQMYTNVDQDLVGWQAPPGARSLTPCTCGSSDLYLVTRHADVIPVRRRGDSRGSLLSPRPVSYLKGSSGGPLLCPSGHAVGIFRAAVCTRGVAKAVDFVPVESMETTMRSPVFTDNSSPPAVPQSFQVAHLHAPTGSGKSTKVPAAYAAQGYKVLVLNPSVAATLGFGAYMSKAHGIDPNIRTGVRTITTGAPVTYSTYGKFLADGGCSGGAYDIIICDECHSTDSTTILGIGTVLDQAETAGARLVVLATATPPGSVTVPHPNIEEVALSNTGEIPFYGKAIPIEAIRGGRHLIFCHSKKKCDELAAKLSGLGINAVAYYRGLDVSVIPTIGDVVVVATDALMTGYTGDFDSVIDCNTCVTQTVDFSLDPTFTIETTTVPQDAVSRSQRRGRTGRGRRGIYRFVTPGERPSGMFDSSVLCECYDAGCAWYELTPAETSVRLRAYLNTPGLPVCQDHLEFWESVFTGLTHIDAHFLSQTKQAGDNFPYLVAYQATVCARAQAPPPSWDQMWKCLIRLKPTLHGPTPLLYRLGAVQNEVTLTHPITKYIMACMSADLEVVT”, the “soluble on expression in E. coli” value was “soluble”.
Regarding “MRGSHHHHHHGSDLGKKLLEAARAGQDDEVRILIANGADVNAVDNTGLTPLHLAAVSGHLEIVEVLLKHGADVDAADVYGFTPLHLAAMTGHLEIVEVLLKYGADVNAFDMTGSTPLHLAADEGHLEIVEVLLKYGADVNAQDKFGKTAFDISIDNGNEDLAKSCRN”, the “soluble on expression in E. coli” value is given as “soluble”.
For “MGSDKIHHHHHHMITESRQMLDKRNRPLRDLRISVTDRCNFRCTYCMPAELFGPDYPFLKKEELLSFEELERLATLFVTRFGVEKIRLTGGEPLMRKDMPELIKKLARIPGIRDIAMTTNGSLLPVYAKRLKEAGLKRVTISLDSLEDERFKKINGRGVSVSKVLEGIEAAKQAGLGVKINMVVQKGVNEKDILPMARYFKEKGHILRFIEFMDVGNTNQWEKKDVMTKAEIIDLINKHMPVEPIAPNYIGEVASRFRYLDGSGEIGVISSVSDAFCGSCNRARLSARGELFTCLFASSGFDLRAPVRQELSDDELSEMIGTVWKNRIDQYSVDRTLSKASGKKKVEMSYIGG”, the “soluble on expression in E. coli” value is given as “not soluble”.
